Results: patent US20250043302A1, “MUTATED HYDROXYPHENYLPYRUVATE DIOXYGENASE POLYPEPTIDE, AND CODING GENE AND USE THEREOF” (BEIJING DABEINONG BIOTECHNOLOGY CO., LTD., priority 2021, published 2025)

How the values were obtained:
[1] = test system: Arabidopsis thaliana T1 plants; assay: Isoxaflutole tolerance of transgenic Arabidopsis thaliana T1 plants (spray, bleached leaf area grade, damage score); assay type: in vivo; details: for Classification and statistics of the grade of pesticide damage Grade 0 / Classification and statistics of the grade of pesticide damage Grade 1 / Classification and statistics of the grade of pesticide damage Grade 2 / Classification and statistics of the grade of pesticide damage Grade 3: number of plants in grade;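 on Scores: Weighted damage index from 0 to 100 where higher means more damage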
In short: (§1)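 Damage was assessed by bleaching grade (0 none; 1 <50%; 2 >50%; 3 100% of leaf area) one week after spraying. Sprays on 18-day-old T1 and wild-type plants used field-rate multiples: topramezone 25–200, isoxaflutole 35–280, mesotrione 52.5–420 g ai/ha.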

[2] = test system: Arabidopsis thaliana T1 plants; assay: Mesotrione tolerance of transgenic Arabidopsis thaliana T1 plants (spray, bleached leaf area grade, damage score); assay type: in vivo; parameters: Scores: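 damage score 0-100 computed as Σ(N×S)/(T×M)×100 over grades 0-3 with higher meaning more damage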; details: for Classification and statistics of the grade of pesticide damage Grade 0 / Classification and statistics of the grade of pesticide damage Grade 1 / Classification and statistics of the grade of pesticide damage Grade 2 / Classification and statistics of the grade of pesticide damage Grade 3: number of plants in grade
In short: as §1

Molecule | Resistance evaluation ([1]; isoxaflutole 140 g ai/ha) | Scores ([1]; isoxaflutole 140 g ai/ha) | Classification and statistics of the grade of pesticide damage Grade 0 ([1]; isoxaflutole 140 g ai/ha) | Classification and statistics of the grade of pesticide damage Grade 1 ([1]; isoxaflutole 140 g ai/ha) | Classification and statistics of the grade of pesticide damage Grade 2 ([1]; isoxaflutole 140 g ai/ha) | Classification and statistics of the grade of pesticide damage Grade 3 ([1]; isoxaflutole 140 g ai/ha) | Resistance evaluation ([1]; isoxaflutole 280 g ai/ha) | Scores ([1]; isoxaflutole 280 g ai/ha) | Classification and statistics of the grade of pesticide damage Grade 0 ([1]; isoxaflutole 280 g ai/ha) | Classification and statistics of the grade of pesticide damage Grade 1 ([1]; isoxaflutole 280 g ai/ha) | Classification and statistics of the grade of pesticide damage Grade 2 ([1]; isoxaflutole 280 g ai/ha) | Classification and statistics of the grade of pesticide damage Grade 3 ([1]; isoxaflutole 280 g ai/ha) | Resistance evaluation ([2]; mesotrione 210 g ai/ha) | Scores ([2]; mesotrione 210 g ai/ha) | Classification and statistics of the grade of pesticide damage Grade 0 ([2]; mesotrione 210 g ai/ha) | Classification and statistics of the grade of pesticide damage Grade 1 ([2]; mesotrione 210 g ai/ha) | Classification and statistics of the grade of pesticide damage Grade 2 ([2]; mesotrione 210 g ai/ha) | Classification and statistics of the grade of pesticide damage Grade 3 ([2]; mesotrione 210 g ai/ha) | Resistance evaluation ([2]; mesotrione 420 g ai/ha) | Scores ([2]; mesotrione 420 g ai/ha) | further results
AsHPPDm-F383Y-02: nucleotide sequence encoding Avena sativa HPPD with F383Y; vector DBN11795 (nucleic acid, AsHPPDm-F383Y-02 Nucleotide Sequence, vector DBN11795) DNA: ATGCCACCTACTCCAGCTACAGCTACTGGTGCTGCTGCTGCTGCCGTTACTCCTGAGCACGCTGCCAGGTCATTCCCCAGGGTGGTTCGCGTGAACCCCAGATCTGATAGGTTCCCAGTTCTGAGCTTCCACCATGTTGAGCTGTGGTGCGCTGATGCTGCTTCTGCTGCTGGCAGGTTCTCTTTCGCTCTTGGTGCTCCACTCGCTGCTAGATCTGATCTGTCTACAGGAAATAGCGCTCATGCCTCACTCCTGCTTCGCTCAGGTGCTTTGGCCTTCCTCTTCACCGCTCCATATGCTCCCCCACCTCAGGAGGCTGCTACTGCTGCTGCTACAGCCTCCATTCCAAGCTTCTCAGCTGATGCCGCTAGAACCTTCGCTGCTGCTCATGGACTTGCCGTGAGGTCTGTTGGTGTTCGCGTGGCTGATGCTGCTGAGGCTTTCAGAGTTTCCGTTGCCGGCGGAGCTAGGCCAGCTTTCGCTCCTGCTGATTTGGGACATGGTTTCGGCCTGGCTGAGGTTGAGCTTTACGGTGACGTGGTTCTCCGCTTCGTGTCTTACCCAGATGAGACTGACCTGCCTTTCCTTCCCGGCTTCGAGAGAGTTTCCTCTCCTGGTGCCGTGGATTACGGCCTGACAAGGTTCGACCACGTGGTTGGAAACGTTCCCGAGATGGCTCCAGTGATCGATTACATGAAGGGCTTCCTTGGATTCCATGAGTTCGCCGAGTTCACTGCTGAGGACGTGGGAACCACTGAGTCCGGTTTGAACTCTGTGGTTCTCGCCAACAATTCTGAGGCTGTTTTGCTCCCTCTGAATGAGCCTGTGCATGGAACCAAGAGGAGAAGCCAGATTCAAACTTACCTGGAGTACCACGGTGGCCCTGGAGTTCAGCATATCGCCCTTGCTTCTAATGATGTGTTGCGCACACTCAGAGAGATGCGCGCCAGAACCCCCATGGGAGGTTTCGAGTTCATGGCCCCACCACAGGCTAAGTACTACGAGGGCGTTAGAAGGATTGCTGGAGACGTGTTGAGCGAGGAGCAGATCAAGGAGTGCCAAGAGCTGGGTGTTCTTGTGGATAGGGATGACCAGGGCGTTCTGCTTCAAATTTTCACTAAGCCAGTGGGCGACCGCCCTACATTCTATCTTGAGATGATTCAAAGAATCGGCTGCATGGAGAAGGATGAGGTTGGACAGGAGTACCAAAAGGGCGGATGCGGTGGCTTCGGAAAGGGTAACTTCAGCGAGTTGTTCAAGTCAATCGAGGACTACGAGAAGAGCCTCGAGGTGAAGCAGTCAGTGGTTGCCCAAAAGTCCTGA | Non-resistant | 100 | 0 | 0 | 0 | 16 | Non-resistant | 100 | 0 | 0 | 0 | 16 | Non-resistant | 100 | 0 | 0 | 0 | 16 | Non-resistant | 100 | Classification and statistics of the grade of pesticide damage Grade 0 ([2]; mesotrione 420 g ai/ha): 0; Classification and statistics of the grade of pesticide damage Grade 1 ([2]; mesotrione 420 g ai/ha): 0; Classification and statistics of the grade of pesticide damage Grade 2 ([2]; mesotrione 420 g ai/ha): 0; Classification and statistics of the grade of pesticide damage Grade 3 ([2]; mesotrione 420 g ai/ha): 16
AsHPPDm-F372A-F383Y-02: nucleotide sequence encoding Avena sativa HPPD with F372A+F383Y; vector DBN11796 (nucleic acid, AsHPPDm-F372A-F383Y-02 Nucleotide Sequence, vector DBN11796) DNA: ATGCCACCTACTCCAGCTACAGCTACTGGTGCTGCTGCTGCTGCCGTTACTCCTGAGCACGCTGCCAGGTCATTCCCCAGGGTGGTTCGCGTGAACCCCAGATCTGATAGGTTCCCAGTTCTGAGCTTCCACCATGTTGAGCTGTGGTGCGCTGATGCTGCTTCTGCTGCTGGCAGGTTCTCTTTCGCTCTTGGTGCTCCACTCGCTGCTAGATCTGATCTGTCTACAGGAAATAGCGCTCATGCCTCACTCCTGCTTCGCTCAGGTGCTTTGGCCTTCCTCTTCACCGCTCCATATGCTCCCCCACCTCAGGAGGCTGCTACTGCTGCTGCTACAGCCTCCATTCCAAGCTTCTCAGCTGATGCCGCTAGAACCTTCGCTGCTGCTCATGGACTTGCCGTGAGGTCTGTTGGTGTTCGCGTGGCTGATGCTGCTGAGGCTTTCAGAGTTTCCGTTGCCGGCGGAGCTAGGCCAGCTTTCGCTCCTGCTGATTTGGGACATGGTTTCGGCCTGGCTGAGGTTGAGCTTTACGGTGACGTGGTTCTCCGCTTCGTGTCTTACCCAGATGAGACTGACCTGCCTTTCCTTCCCGGCTTCGAGAGAGTTTCCTCTCCTGGTGCCGTGGATTACGGCCTGACAAGGTTCGACCACGTGGTTGGAAACGTTCCCGAGATGGCTCCAGTGATCGATTACATGAAGGGCTTCCTTGGATTCCATGAGTTCGCCGAGTTCACTGCTGAGGACGTGGGAACCACTGAGTCCGGTTTGAACTCTGTGGTTCTCGCCAACAATTCTGAGGCTGTTTTGCTCCCTCTGAATGAGCCTGTGCATGGAACCAAGAGGAGAAGCCAGATTCAAACTTACCTGGAGTACCACGGTGGCCCTGGAGTTCAGCATATCGCCCTTGCTTCTAATGATGTGTTGCGCACACTCAGAGAGATGCGCGCCAGAACCCCCATGGGAGGTTTCGAGTTCATGGCCCCACCACAGGCTAAGTACTACGAGGGCGTTAGAAGGATTGCTGGAGACGTGTTGAGCGAGGAGCAGATCAAGGAGTGCCAAGAGCTGGGTGTTCTTGTGGATAGGGATGACCAGGGCGTTCTGCTTCAAATTGCCACTAAGCCAGTGGGCGACCGCCCTACATTCTATCTTGAGATGATTCAAAGAATCGGCTGCATGGAGAAGGATGAGGTTGGACAGGAGTACCAAAAGGGCGGATGCGGTGGCTTCGGAAAGGGTAACTTCAGCGAGTTGTTCAAGTCAATCGAGGACTACGAGAAGAGCCTCGAGGTGAAGCAGTCAGTGGTTGCCCAAAAGTCCTGA | Moderately | 33 | 5 | 6 | 5 | 0 | Poorly | 67 | 0 | 0 | 16 | 0 | Moderately | 33 | 5 | 6 | 5 | 0 | Poorly resistant | 52 | Classification and statistics of the grade of pesticide damage Grade 0 ([2]; mesotrione 420 g ai/ha): 0; Classification and statistics of the grade of pesticide damage Grade 1 ([2]; mesotrione 420 g ai/ha): 8; Classification and statistics of the grade of pesticide damage Grade 2 ([2]; mesotrione 420 g ai/ha): 7; Classification and statistics of the grade of pesticide damage Grade 3 ([2]; mesotrione 420 g ai/ha): 1
